The subject of data set [1] is CC(=O)N[C@H]1[C@H](Oc2ccc3c(C)cc(=O)oc3c2)O[C@H](COS(=O)(=O)O)[C@@H](O)[C@@H]1O. The data set can be described thus: purified protein. Conditions: pH 6.0, 25 °C, 25 mM Bis-tris propane, 25 mM citrate, 300 mM NaCl.
Data set [2] relates to CC(=O)N[C@H]1[C@H](Oc2ccc3c(C)cc(=O)oc3c2)O[C@H](CO)[C@@H](O)[C@@H]1O. The data set can be described thus: purified protein. Conditions: pH 6.0, 25 °C, 25 mM Bis-tris propane, 25 mM citrate, 300 mM NaCl.
Data set [3] concerns T1, CC(=O)N[C@H]1[C@H](Oc2ccc3c(C)cc(=O)oc3c2)O[C@H](COS(=O)(=O)O)[C@@H](O)[C@@H]1O.
T1 construct: residues 22-546, His6-tagged (pET23-Bt4394(22-546)-6His), expressed in E. coli BL21(DE3)
The data set can be described thus: fluorometric release of 4-methylumbelliferone, Michaelis-Menten fit. The format is biochemical, Bacteroides thetaiotaomicron. To be noted: pH 5.5, 25 °C, 25 mM Bis-tris propane, 25 mM citrate, 300 mM NaCl. From the text:
(§1) fluorometric release of 4-methylumbelliferone, Michaelis-Menten fit on Bt4394

For data set [4], the system named is CC(=O)N[C@H]1[C@H](Oc2ccc3c(C)cc(=O)oc3c2)O[C@H](COS(=O)(=O)O)[C@@H](O)[C@@H]1O. The description is as above. The format is biochemical, Prevotella sp. CAG:5226. To be noted: pH 6.0, 25 °C, 25 mM Bis-tris propane, 25 mM citrate, 300 mM NaCl. From the text: (§2) fluorometric release of 4-methylumbelliferone, Michaelis-Menten fit on WG enzyme
In data set [5] the test system is CC(=O)N[C@H]1[C@H](Oc2ccc3c(C)cc(=O)oc3c2)O[C@H](CO)[C@@H](O)[C@@H]1O. The description is as above. Conditions: pH 6.0, 25 °C, 25 mM Bis-tris propane, 25 mM citrate, 300 mM NaCl. The class given is biochemical, Prevotella sp. CAG:5226.
Text: as §2

Substrate in data set [6]: CC(=O)N[C@H]1[C@H](Oc2ccc3c(C)cc(=O)oc3c2)O[C@H](CO)[C@@H](O)[C@@H]1O
The data set is described as above. The format is biochemical, Bacteroides thetaiotaomicron. To be noted: pH 5.5, 25 °C, 25 mM Bis-tris propane, 25 mM citrate, 300 mM NaCl.
Text: as §1

Substrate in data set [7]: CC(=O)N[C@H]1[C@H](Oc2ccc3c(C)cc(=O)oc3c2)O[C@H](COS(=O)(=O)O)[C@@H](O)[C@@H]1O
The description is as above. The format is biochemical, Bacteroides thetaiotaomicron. Conditions: pH 5.5, 25 °C, 25 mM Bis-tris propane, 25 mM citrate, 300 mM NaCl.
Text: as §1

In general, Km refers to the substrate concentration at which the rate is half of its maximum. In general, kcat refers to the maximal rate divided by the concentration of active sites. The term kcat/Km denotes the turnover number divided by the Michaelis constant. Turning to “YG enzyme (Alloprevotella sp. oral taxon 473 str. F0040)”, in data set [1], the Km was determined as 12 ± 1 µM, the kcat worked out at 76 ± 2 s⁻¹ and the kcat/Km was determined as 6e+06 ± 2e+06 M⁻¹ s⁻¹. Further, in data set [2], the Km was 2209 ± 355 µM, the kcat stood at 11.7 ± 0.7 s⁻¹ and the kcat/Km worked out at 5000 ± 2000 M⁻¹ s⁻¹.

For “WG enzyme (Prevotella sp. CAG:5226; N423D)”, in data set [1], the Michaelis-Menten constant (Km) turned out to be 56 ± 6 µM, the kcat was 69 ± 4 s⁻¹ and the kcat/Km came out at 1.2e+06 ± 700000 M⁻¹ s⁻¹.

On to “Bt4394 (Bacteroides thetaiotaomicron VPI-5482; I432G/Q431Y)”, for which, in data set [3], the Km was found to be 546 ± 37 µM, the kcat was determined as 31.6 ± 0.7 s⁻¹ and the kcat/Km was found to be 60000 ± 20000 M⁻¹ s⁻¹.

Turning to “WG enzyme (Prevotella sp. CAG:5226; W417A)”, in data set [1], the Km amounted to 17 ± 2 µM, the kcat was found to be 45 ± 1 s⁻¹ and the kcat/Km turned out to be 2.6e+06 ± 300000 M⁻¹ s⁻¹.

Regarding WG enzyme (Prevotella sp. CAG:5226), in data set [4], the Km amounted to 5.1 ± 0.3 µM, the kcat was 39.9 ± 0.6 s⁻¹ and the kcat/Km came out at 8e+06 ± 2e+06 M⁻¹ s⁻¹. Besides, in data set [5], the Km came to 2706 ± 344 µM, the kcat is 11.6 ± 0.5 s⁻¹ and the kcat/Km is 4000 ± 2000 M⁻¹ s⁻¹.

For the molecule “YG enzyme (Alloprevotella sp. oral taxon 473 str. F0040; R446A)”, in data set [1], the Km was 90 ± 9 µM, the kcat came out at 97 ± 3 s⁻¹ and the kcat/Km is 1.1e+06 ± 300000 M⁻¹ s⁻¹.

As to “Bt4394 (Bacteroides thetaiotaomicron VPI-5482; I432G/Q431W)”, in data set [3], the Km was 194 ± 16 µM, the kcat was 12 ± 0.3 s⁻¹ and the kcat/Km stood at 60000 ± 20000 M⁻¹ s⁻¹.

As to “YG enzyme (Alloprevotella sp. oral taxon 473 str. F0040; N445D)”, in data set [1], the Km is 130 ± 14 µM, the kcat came to 98 ± 3 s⁻¹ and the kcat/Km is 800000 ± 200000 M⁻¹ s⁻¹.

Take “WG enzyme (Prevotella sp. CAG:5226; R424A)”: in data set [1], the Km worked out at 47 ± 6 µM, the catalytic constant (kcat) stood at 62 ± 2 s⁻¹ and the kcat/Km worked out at 1.3e+06 ± 300000 M⁻¹ s⁻¹.

B1: Bt4394 (Bacteroides thetaiotaomicron VPI-5482) (protein)
chain: QEIALTPQPAHLTVKDGRFEFGNQLKAKVTPYQGDSIRMVFESFKKELQEATGIKVSSTQKEAKARIILDLNPQLPAEAYKLNVSKKQVRIEASRPAGFYYALQTLKQLMPRNVMAGVATSDHSQWSLPSVEIEDAPRFEWRGFMLDEGRHFFGKDEIKRVIDMMAIYKMNRFHWHLTEDQGWRIEIKKYPKLTETGAWRNSKVLAYGDVKPDGERYGGFYTQKDIKEIVAYAKKKFIEIIPEIDIPGHSQAAVAAYPEFLACDPRDKHEVWLQQGISTDVINVANPKAMQFAKEVIDELTELFPFNYIHLGGDECPTRKWQKNDECKKLLSEIGSSNFRDLQIYFYKQLKDYIATKPADQQRQLIFWNEVLHGNTSILGNDITIMAWIGANAAAKQAAKQGMNTILSPQIPYYINRKQSKLPTEPMSQGHGTETVEAVYNYQPLKDVDAALQPYYKGVQANFWTEWVTEPSVLEYLMLPRLAAVAEAGWTPQEKRNYEDFKERIRKDAELYDLKGWNYGKHIMK
notes: residues 22-546, His6-tagged (pET23-Bt4394(22-546)-6His), expressed in E. coli BL21(DE3)
As for B1, in data set [6], the Km came to 2183 ± 189 µM, the catalytic constant (kcat) was found to be 2.9 ± 0.1 s⁻¹ and the kcat/Km came out at 1300 ± 500 M⁻¹ s⁻¹. Also, in data set [7], the Km was 39 ± 4 µM, the kcat amounted to 25.8 ± 0.7 s⁻¹ and the kcat/Km is 700000 ± 200000 M⁻¹ s⁻¹.

Values taken from article PMC11659886, “Bioinformatics-Facilitated Identification of Novel Bacterial Sulfoglycosidases That Hydrolyze 6-Sulfo-N-acetylglucosamine” (ACS Bio & Med Chem Au, 2024).
